The values that follow come from patent US20220168434A1, “APPLICATION OF TRANSTHYRETIN IN ENTERING EYE AND PREPARING DROP” (YIZHOU (SHANGHAI) BIOLOGICAL MEDICINE CO, LTD., priority 2019, published 2022).

Data set [1] in a line: Protein content in vitreous body during two weeks of eye dropping (ELISA, anti-His tag antibody). The following applies: SD rats; protein not fused with TTR. Type of data set: in vivo, SD rats (Rattus norregicus). The procedure: (§1) The purified TTR protein (at a concentration of 4 μmol/L) prepared in Example 1 after removal of endotoxin and bacteria was subject to treating healthy SD rats (Rattus norregicus) (6 weeks old) and New Zealand big-eared rabbits (Oryctolagus cuniculus) (2 months old, about 2.5 kg) by means of eye dropping, the left eye was the sample eye dropped with the protein, and the right eye was the blank control eye dropped with saline. The protein was administered 1-3 times per day at a dosage of 0.4-0.8 nmol. Two weeks later, the eyeball was removed and separated to obtain the vitreous body sample. It was preliminarily verified by western-blot method (FIG. 7A) that TTR can enter the vitreous cavity from the ocular surface.
(§2) The purified TTR-GFP protein (at a concentration of 4 μmol/L) prepared in Example 2 after removal of endotoxin and bacteria was subject to treating healthy SD rats (Rattus norregicus) (6 weeks old) and New Zealand big-eared rabbits (Oryctolagus cuniculus) (2 months old, about 2.5 kg) by means of eye dropping, the left eye was the sample eye dropped with the protein, and the right eye was the blank control eye dropped with saline. The protein was administered 1-3 times per day at a dosage of 0.4-0.8 nmol. […] The content of TTR-GFP in the vitreous body sample was determined by ELISA with the anti-His tag antibody as the primary antibody (Table 10 and 11). […]
(In general: An ELISA detects its analyte on a solid surface through an enzyme-linked reagent.)

Test in data set [2]: as above
The settings on record: New Zealand big-ear rabbits; protein not fused with TTR. Type of data set: in vivo, New Zealand big-eared rabbits (Oryctolagus cuniculus). How it is done: as §1, §2

As to “Lysozyme: Lysozyme protein (Genbank Accession No.: AAL69327.1) not fused with TTR”, the “entering the vitreous body after eye dropping (in words)” value in data set [1] and in data set [2] was “did not enter” throughout.
